Measured values as given in patent publication US11351270B2, “Junctophilin-2 fragments and uses therefor” (University of Iowa Research Foundation, priority 2016, dated 2022).

Tests used:
RyR2 and Cav1.2 = assay: Coimmunoprecipitation with E-C coupling channels; type: binding, mouse; settings: anti-HA immunoprecipitation
From the text: FIGS. 5A-H. JP2 truncations are nonfunctional in regulating Ca^2+ transients. A) An antibody against the HA tag was used to reveal the localization of adenoviral expression of tagged full-length JP2 and truncations, as indicated, in adult wild-type cardiomyocytes. All the three version of JP2 can be localized in the striated pattern. B) Full-length JP2 and JP2(1-565) forms complexes with RyR2 and Cav1.2 In vivo. An antibody against HA was used for immunoprecipitation […]. The RyR2 and Cav1.2 that were pulled down were detected by Western blot analysis. […] IB, immunoblot. C) Adenovirus-mediated expression of full-length JP2, FLAG-JP2(1-565)-HA, and JP2(566-end)-HA in JP2-KD) cardiomyocytes. D) Representative steady-state Ca^2+ transients under 1-Hz field stimulation. The fluorescence intensity (F) of Ca^2+ imaging was normalized to the baseline (FO). The red lines overlapping on Ca^2+ imaging show the profile of the moment of Ca^2+ transient firing on the scanning line in a point-by-point way. A straighter line means better synchronization of the Ca^2+ transients. Note that expression of full-length JP2, but not JP2 truncations, improves the amplitude and synchronization of Ca^2+ transients. E-G) Summary of Ca^2+ transient amplitude, index of desynchronization (mean absolute deviation of firing time), and duration of 50% decay (T5) (n=68, 70, 70, and 52 for Ad-Empty, Ad-JP2, […], and Ad-JP2(566-end), respectively). Only full-length JP2 Improves the amplitude, synchronization, and decay of Ca^2+ transients. H) Summary of SR Ca^2+ content, which was assessed by caffeine-induced SR Ca^2+ release (n=17, 17, 17, and 12 for Ad-Empty, Ad-JP2, Ad-JP2(1-565), and Ad-JP2(566-end), respectively). **, p<0.01 versus indicated groups; N.S., not significant.
Cleavage at the primary calpain proteolysis site (Arg-565/Thr-566) splits apart the C-terminal SR-binding TM domain and N-terminal plasma membrane-binding MORN domains of JP2. […]

JP2-KD cardiomyocytes = assay: Confocal Ca2+ imaging in JP2-KD cardiomyocytes after adenoviral expression; type: cell-based, mouse
From the text: Specifically, conditional shJP2 mice (provided by Dr. Wehrens) (van Oort et al., 2011) were crossed with mice carrying the cardiac-specific α-myosin heavy chain promoter upstream of Cre (% MHC-Cre, also FVB-Tg(Myh6-cre)2182Mds/J, The Jackson Laboratory). The shJP2 mice were maintained on a C57BL/6 background for more than 10 generations. The αMHC-Cre mice were maintained on an FVB background. PCR was used to genotype the offspring. The near complete depletion of JP2 protein in JP2-KD (αMHC-Cre X shJP2) hearts has been reported recently (Chen et al., 2013). JP2-KD mice were sacrificed at 2 months of age for isolation and culture of ventricular cardiomyocytes as described below.
(§1) Genecarrior-1 (Epoch Lab) was used to transfect plasmids into HEK293T cells. Isolation and culture of cardiomyocytes were performed as described previously (Guo et al., 2012). […] Ca^2+ Imaging experiments were performed 40 hours after adenoviral infection.
(§2) Cells were loaded with Rhod-2AM at 37° C. for 20 minutes, followed by washing with Tyrode's solution at room temperature for 15 minutes before Ca^2+ imaging. Confocal images were acquired using a ×63, 1.3 numerical aperture oil immersion objective mounted on a Zeiss LSM 510 confocal microscope. Confocal line scanning was used to record Ca^2+ signals. Steady-state Ca^2+ transients were recorded in Tyrode's solution containing 1.8 mM Ca^2+ under field stimulation of 1 Hz. At least five steady-state transients for each cell were analyzed and averaged to represent Ca^2+ signals of the cell. Ca^2+ imaging data were analyzed by using a home-complied software, CaTeasy, which is coded in MATLAB 2013a (Mathworks). Briefly, the program normalizes Ca^2+ transient images on a column-by-column basis (512 columns/image). The characteristic parameters of normalized transients were detected automatically. The firing time of every scanning pixel was detected column by column on the basis of the maximum local variability of pixel intensity. The profile of the point-to-point firing time was indicated by a red line overlapping on the Ca^2+ image. Index of desynchronization, defined by the mean absolute deviation of firing time of each scanning pixel (with every 8 pixels binned), was used to evaluate the dyssynchrony of Ca^2+ transients. This automated software for calcium transient analysis is available upon request.

[1] = system: cultured adult murine cardiomyocytes; assay: Affymetrix Genechip analysis of cultured cardiomyocytes; type: cell-based, mouse; settings: vs Ad-Empty control
Procedure: Genecarrior-1 (Epoch Lab) was used to transfect plasmids into HEK293T cells. Isolation and culture of cardiomyocytes were performed as described previously (Guo et al., 2015). Adenoviruses were applied at a multiplicity of infection (MOI) of about 100, which results in transfection of almost all cells as confirmed by immunostaining of eptiope tags.
Microarray assay was performed by Affymetrix GeneChip® Mouse Genome 430 2.0 according to the standard procedure of cRNA preparation and Genechip hybridization. The R package limma (version 3.22.7) (Ritchie et al., 2015) was used for processing microarray data and identifying differentially expressed genes (the cutoff of significance was p value<0.01). David (Huang et al., 2009) was used for gene enrichment (GO) analysis. Ingenuity pathway analysis (IPA, Qiagen) was used for pathway analysis.

WT cardiomyocytes = assay: Confocal Ca2+ imaging in WT cardiomyocytes after adenoviral expression; type: cell-based, mouse; settings: 1-Hz field stimulation; overexpression in WT cardiomyocytes
Procedure: as §1
as §2, with “Index of desynchronization, defined by the mean absolute deviation of firing time of each scanning pixel (with every 8 pixels binned), was used to evaluate the dyssynchrony of Ca^2+ transients. This automated software for calcium transient analysis is available upon request.” left out

B1: full-length JP2: full-length junctophilin-2, FLAG/HA tagged, expressed by adenovirus (protein, UniProt Q9BR39 1-696, looked up)
chain: MSGGRFDFDDGGAYCGGWEGGKAHGHGLCTGPKGQGEYSGSWNFGFEVAGVYTWPSGNTFEGYWSQGKRHGLGIETKGRWLYKGEWTHGFKGRYGIRQSSSSGAKYEGTWNNGLQDGYGTETYADGGTYQGQFTNGMRHGYGVRQSVPYGMAVVVRSPLRTSLSSLRSEHSNGTVAPDSPASPASDGPALPSPAIPRGGFALSLLANAEAAARAPKGGGLFQRGALLGKLRRAESRTSVGSQRSRVSFLKSDLSSGASDAASTASLGEAAEGADEAAPFEADIDATTTETYMGEWKNDKRSGFGVSERSSGLRYEGEWLDNLRHGYGCTTLPDGHREEGKYRHNVLVKDTKRRMLQLKSNKVRQKVEHSVEGAQRAAAIARQKAEIAASRTSHAKAKAEAAEQAALAANQESNIARTLARELAPDFYQPGPEYQKRRLLQEILENSESLLEPPDRGAGAAGLPQPPRESPQLHERETPRPEGGSPSPAGTPPQPKRPRPGVSKDGLLSPGAWNGEPSGEGSRSVTPSEGAGRRSPARPATERMAIEALQAPPAPSREPEVALYQGYHSYAVRTTPPEPPPFEDQPEPEVSGSESAPSSPATAPLQAPTLRGPEPARETPAKLEPKPIIPKAEPRAKARKTEARGLTKAGAKKKARKEAALAAEAEVEVEEVPNTILICMVILLNIGLAILFVHLLT
modifications: full-length FLAG/HA tags; adenoviral expression
notes: full-length junctophilin-2, FLAG/HA tagged, expressed by adenovirus
- interaction with RyR2 and Cav1.2 (RyR2 and Cav1.2): interact
- decay phase (T50) of Ca2+ transients (JP2-KD cardiomyocytes; 1-Hz field stimulation): shortened decay phase
- synchronization of Ca2+ transients (index of desynchronization) (JP2-KD cardiomyocytes; 1-Hz field stimulation): increased synchronization
- increase of Ca2+ transient amplitude (JP2-KD cardiomyocytes; 1-Hz field stimulation, adenoviral expression): 50%
- SR Ca2+ content (JP2-KD cardiomyocytes; caffeine-induced SR Ca2+ release): not influenced
- significantly induced known genes (p<0.01) [1]: 96 genes
- significantly repressed known genes (p<0.01) [1]: 264 genes
- kinetics of steady-state Ca2+ transients and SR Ca2+ loading (WT cardiomyocytes): did not alter
